Patent publication US20250177547A1, “PSMA-STEAP1 DUAL VARIABLE DOMAIN IMMUNOGLOBLIN (DVD-Ig) MOLECULES AND DRUG CONJUGATES” (AbbVie Inc., priority 2023, published 2025)
Marks after values point to notes of the source that are not given here.

Assays:
HEK293-PSMA cells = assay: In vitro cytotoxicity of MMAE conjugates (CellTiter-Glo), HEK293-PSMA; conditions: FIG. 3B/3E
22Rv1 xenograft = 22Rv1 xenograft study of MMAE conjugates; format: in vivo, mouse; conditions: FIG. 4A
Protocol: (§1) Male NSG mice were obtained from Jackson Laboratories (Bar Harbor, ME) for both LNCaP.FGC and 22Rv1 xenograft studies. Mice were housed by treatment group at seven to eight mice per cage. Food and water were available ad libitum. Mice were acclimated to the animal facilities for a period of at least one week prior to commencement of experiments. Animals were tested in the light phase of a 12-hour light:12-hour dark schedule (lights on at 06:00 hours).
(§2) To generate xenografts from LNCaP.FGC (ATCC) and from 22Rv1 (ATCC) cell lines, 5×10^6 viable LNCaP.FGC and 22Rv1 cells were inoculated subcutaneously into the right flank of male NSG mice, respectively. The injection volume was 0.1 mL and composed of a 1:1 mixture with Matrigel (BD, Franklin Lakes, NJ). Measurements of the length (L) and width (W) of the tumor were taken via electronic caliper and the tumor volume was calculated according to the following equation: V=L×W^2/2.
Mice were assigned to treatment groups so that the mean tumor volumes within groups were approximately 175-250 mm^3. […] Mice were euthanized (1) when tumor volume reached 2,000 mm^3, (2) when general efficacy parameters were confidently determined, or (3) when necessitated by other animal health issues.

LNCaP.FGC xenograft = LNCaP.FGC xenograft study of MMAE conjugates; format: in vivo, mouse
Protocol: as §1, §2
Mice were assigned to treatment groups so that the mean tumor volumes within groups were approximately 175-250 mm^3. An anti-PSMA-MMAE ADC at Dose-1 1×, an anti-STEAP1-MMAE ADC at Dose-1 1×, and various of the PSMA/STEAP-1 DVD-Igs conjugated with MMAE described above at Dose-1 1.33×(Clone 13 was administered at Dose-1 0.87×due to limited compound availability) were administered within 24-48 hours of assignment to treatment groups based on tumor volumes. Tumor volumes were estimated two times weekly after dosing, with study groups body weights taken at the time of tumor measurements. Mice were euthanized (1) when tumor volume reached 2,000 mm^3, (2) when general efficacy parameters were confidently determined, or (3) when necessitated by other animal health issues.
Parameters of Efficacy were determined as follows:
TGI (tumor growth inhibition)=1−(mean tumor volume of treatment group/mean tumor volume of treatment control group)×100 based on measurements on day of vehicle endpoint. P values are derived from Student's T test comparison of treatment group vs. vehicle control group.
TGD (tumor growth delay)=(T−C)/C×100, where T is the median time to endpoint of treatment group and C is the median time to endpoint of treatment control group. P values are derived from Kaplan Meier log-rank comparison of treatment group vs. vehicle control group.

B1: STEAP1-PSMA-(vcMMAE) Clone 15: PSMA-STEAP1 DVD-Ig clone 15 conjugated with monomethyl auristatin E (MMAE) (conjugate)
heavy: EVQLVESGGGVVQPGRSLRLSCVASGFPFNNYWMTWIRQAPGKGLEWIASITITGGTTYYPGSVKGRFTISRDNSKSTLYLQMNSLRAEDTAVYYCTRERYSTEYYPYYWYFDFWGQGTMVTVSSGGGGSGGGGSEVQLVQSGAEVKKPGSSVKVSCKASGYTFTDYYMNWVKQAPGKGLEWIGLINPSNGGTNYNQKFRDKATLTVDKSTSTAYMELSSLRSEDTAVYYCARRAQATSGDYWGQGTTVTVSS
light: DIQMTQSPSSLSASVGDRVTITCRTSQDIGNYLRWFQQKPGKSPKLMIYDAINLAAGVPSRFSGSGSGTDYTLTISSLQPEDVATYYCLQHNEYPYTFGQGTKLEIKGGSGGGGSGDIQMTQSPSSLSASVGDRVTITCHASQNINVWLSWYQQKPGKAPKLLIYKASNLHTGVPSRFSGSGSGTDFTFTISSLQPEDIATYYCQQGQTYPLTFGGGTKVEIK
modifications: left off: a dimerising Fc or GST; large carriers
cytotoxic activity in HEK293-PSMA cells (HEK293-PSMA cells): weaker than PSMA-MMAE | activity in 22Rv1 xenograft model relative to monospecific ADCs (22Rv1 xenograft): comparable or superior activity relative to monospecific ADCs | activity in LNCaP.FGC xenograft model relative to monospecific ADCs (LNCaP.FGC xenograft; FIG. 4B): comparable or superior activity relative to monospecific ADCs | PR (%) partial response (LNCaP.FGC xenograft; LNCaP.FGC xenograft, IP, QD x 1, >25 mm^3 but less than one-half of volume at onset): 38* % | TR (%) total responders (LNCaP.FGC xenograft; LNCaP.FGC xenograft, IP, QD x 1, sum of CR and PR): 75*** % | CR (%) complete response (LNCaP.FGC xenograft; LNCaP.FGC xenograft, IP, QD x 1, tumor burden ≤25 mm^3 for at least three consecutive measurements): 38% | TGI (%) (LNCaP.FGC xenograft; LNCaP.FGC xenograft, male NSG mice, IP, QD x 1, day of comparison d 63 post inoculation): 88*** % | TGD (%) (LNCaP.FGC xenograft; LNCaP.FGC xenograft, male NSG mice, IP, QD x 1, tumor volume endpoint 1000 mm^3): 229*** %
